Source: patent US20030040606A1 (SKYTECH TECHNOLOGY, published 2003)

Molecular target: T1, CD22 on Raji cells (UniProt P20273 20-847, limits assumed)
T1 construct: whole, on cells
T1 sequence (looked up): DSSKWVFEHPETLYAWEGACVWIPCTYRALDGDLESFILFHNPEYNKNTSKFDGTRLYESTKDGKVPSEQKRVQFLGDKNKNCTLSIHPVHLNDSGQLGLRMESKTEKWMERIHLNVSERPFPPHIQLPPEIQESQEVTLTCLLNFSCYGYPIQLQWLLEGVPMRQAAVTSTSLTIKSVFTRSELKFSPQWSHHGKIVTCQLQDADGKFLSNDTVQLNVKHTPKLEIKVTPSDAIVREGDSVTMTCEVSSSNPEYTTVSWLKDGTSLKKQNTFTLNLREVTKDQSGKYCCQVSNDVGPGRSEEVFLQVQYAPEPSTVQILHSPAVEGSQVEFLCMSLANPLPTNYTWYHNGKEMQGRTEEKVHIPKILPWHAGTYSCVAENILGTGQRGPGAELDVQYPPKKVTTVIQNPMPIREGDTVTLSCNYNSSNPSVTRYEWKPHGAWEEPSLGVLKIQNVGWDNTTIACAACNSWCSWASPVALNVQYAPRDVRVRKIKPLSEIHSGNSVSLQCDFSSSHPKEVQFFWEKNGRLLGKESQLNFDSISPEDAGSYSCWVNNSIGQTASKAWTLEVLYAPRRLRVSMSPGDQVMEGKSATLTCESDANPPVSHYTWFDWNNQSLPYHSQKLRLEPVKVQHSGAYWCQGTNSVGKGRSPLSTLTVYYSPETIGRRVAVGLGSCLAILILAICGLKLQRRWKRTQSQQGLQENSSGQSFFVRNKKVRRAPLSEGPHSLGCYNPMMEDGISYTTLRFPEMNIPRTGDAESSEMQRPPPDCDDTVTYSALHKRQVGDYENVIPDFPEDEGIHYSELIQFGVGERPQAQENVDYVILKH
Assay: flow cytometry on Raji cells, 1 ug antibody, FITC goat anti-human IgG1 Fc detection
Protocol: The mixtures were incubated for 30 minutes at 4° C. and washed three times with PBS to remove unbound antibodies. The binding levels of the antibodies to Raji cells were assessed by the addition of a 20x diluted FITC-labeled, goat anti-human IgG1, Fc fragment-specific antibodies (Jackson ImmunoResearch, West Grove, Pa.) in a final volume of 100 μl in PBS-FA, and incubating for 30 minutes at 4° C.

B1: FR-patched anti-CD22 antibody hpRFB4 (antibody, human IgG1, V domains shown)
VH: EVQLLESGGGLVQPGGSLRLSCAASGFSFSIYDMSWVRQAPGKGLEWVAYISSGGGTTYYPDTVKGRFTISRDNAKNSLYLQMNSLRVEDTALYYCARHSGYGSSYGVLFAYWGQGTLVTVSS
VL: DIQMTQSPSSLSASVGDRVTISCRASQDISNYLNWYQQKPGKAPKLLIYYTSILHSGVPSRFSGSGSGTEFTLTISSLQPEDFATYFCQQGNTLPWTFGGGTKVEIK
notes: Expressed in Sp2/0 cells with a human IgG1 heavy chain constant region and a human kappa light chain constant region (vectors hpRFB4pSMh and hpRFB4pSMk); protein A purified; also called FR-patched antibody; FR-patched RFB4
Q: Does B1 bind?
A: Result: binds
